Test results as given in article PMC7962591 (Cell, 2021).

Target: SARS-CoV-2 (strain Wuhan-Hu-1) spike protein, wild type, full-length expression construct (SARS-CoV-2, Wuhan-Hu-1, UniProt P0DTC2)
Assay: flow cytometry on cells

Binder	binding result
COV2-2676 (human mAb, recombinant IgG1) (antibody, V domains shown) VH: QVQLVQSGAEVKKPGSSVKVSCKASGGTFSSYAINWVRQAPGQGLEWMGGIIPIFGTANYAQKFQGRVTFTADESTSTAYMEVSSLRSEDTAVYYCARSCGDCYSADLDFWGQGTLVTVSS VL: EIVLTQSPATLSLSPGERATLSCRASQSISSFLAWYQQKPGQAPRLLIYDASNRATGIPARFSGSGSGTDFTLTISSLEPEDFAVYYCQRRSNWPPFTFGPGTKVDIK	binds
COV2-2489 (human mAb, recombinant IgG1) (antibody, V domains shown) VH: QLQLQESGPGLVKPSETLSLTCTVSGGSISSTTYYWGWIRQPPGKGLEWIASIYYSGSTYYNPSLKSRLTVSVDTSKNQFSLKLSSVTAADTAVYYCARQWKWFGEAWYFDLWGRGTLVTVSS VL: not shown	binds
